Laboratory results reported in publication PMC5397184 (Nucleic Acids Research, 2017).
Numbering of substitutions follows the chain as printed. Names may count otherwise.

B1: E. coli Hda (full-length, wild type) (natural protein)
chain: MNTPAQLSLPLYLPDDETFASFWPGDNSSLLAALQNVLRQEHSGYIYLWAREGAGRSHLLHAACAELSQRGDAVGYVPLDKRTWFVPEVLDGMEHLSLVCIDNIECIAGDELWEMAIFDLYNRILESGKTRLLITGDRPPRQLNLGLPDLASRLDWGQIYKLQPLSDEDKLQALQLRARLRGFELPEDVGRFLLKRLDREMRTLFMTLDQLDRASITAQRKLTIPFVKEILKL
B2: E. coli Hda W156A (natural protein)
chain: B1 chain with W156A
B3: E. coli Hda hook mutant (K81S, W84S, F85S) (natural protein)
chain: B1 chain with K81S, W84S, F85S

Legend:
crystal structure = molecular target: the molecule itself; assay: crystal structure
[1] = molecular target: T1, E. coli β sliding clamp (wild type, His-tagged) (E. coli, UniProt P0A988 1-366); assay: crystal structure
T1 sequence (P0A988 whole entry): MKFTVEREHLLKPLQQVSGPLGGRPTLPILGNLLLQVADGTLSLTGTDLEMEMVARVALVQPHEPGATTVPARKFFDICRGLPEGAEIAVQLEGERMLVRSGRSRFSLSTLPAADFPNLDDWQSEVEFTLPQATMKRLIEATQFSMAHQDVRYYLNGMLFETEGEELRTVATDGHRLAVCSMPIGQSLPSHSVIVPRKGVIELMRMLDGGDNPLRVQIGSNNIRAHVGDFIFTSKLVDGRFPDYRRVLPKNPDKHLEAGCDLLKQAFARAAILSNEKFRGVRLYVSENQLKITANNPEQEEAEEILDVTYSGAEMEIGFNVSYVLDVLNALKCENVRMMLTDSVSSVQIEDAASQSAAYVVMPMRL

[2] = molecular target: T1, E. coli β sliding clamp (wild type, …); assay: SEC-MALS

Binder | binding result (crystal structure) | binding result [1] | binding result [2]
B1 | binds | binds | –
B2 | – | – | binds
B3 | – | – | binds
